Reference: patent US20030185792A1, “Morphogen analogs of bone morphogenic proteins” (Curis, Inc., priority 1996, published 2003)

T1: ECD of DAF-4 (Caenorhabditis elegans, UniProt P50488)
T1 construct: highly purified ECD of DAF-4 as type II receptor
T1 sequence (P50488 48-253 limits assumed): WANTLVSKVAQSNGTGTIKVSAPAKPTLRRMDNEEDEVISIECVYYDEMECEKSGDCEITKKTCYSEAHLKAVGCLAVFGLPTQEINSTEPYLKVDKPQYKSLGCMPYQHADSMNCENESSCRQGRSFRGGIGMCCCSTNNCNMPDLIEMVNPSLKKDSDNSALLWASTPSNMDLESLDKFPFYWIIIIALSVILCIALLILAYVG


What was measured:
[1] = system: OP-1 receptor-enriched plasma membrane fraction of ROS cells; experiment: Radioligand receptor assay: displacement of 125I-labeled OP-1 from ROS cell plasma membranes; type: binding, rat
Experimental: In a second series of experiments, the ability of unlabeled soluble OP-1 and unlabeled peptides F1-2, F2-2, F2-3, H-n2 and H-c2 to displace ^125I labeled soluble OP-1 from ROS cell membranes was measured. The activities of peptides F2-2 and F2-3 relative to soluble OP-1 are shown in FIG. 10A, and the activities of peptides Fi-2, H-n2 and H-c2 relative to soluble OP-1 are shown in FIG. 10B. OP-1 receptor-enriched plasma membranes of ROS cells were incubated for 20 hrs at 4° C. with ^125I-labeled soluble OP-1 and unlabeled peptide. Receptor bound material was separated from unbound material by centrifugation at 39,500×g. The resulting pellet was harvested and washed with 50 mM HEPES buffer, pH 7.4 containing 5 mM MgCl2 and 1 mM CaCl2 Radioactivity remaining in the pellet was determined by means of a gamma counter.
Assay of peptides: The receptor-binding activities of OP-1 synthetic peptides were determined by a radio-ligand receptor assay using ^125I-labeled OP-1 as ligand, and an OP-1 receptor-enriched plasma membrane fraction of ROS cells. The assay is based on competition between radiolabeled OP-1 and unlabeled OP-1 or peptide for binding to membrane-bound receptor. A well characterized ROS cell based in vitro bio-assay was used to examine the effects of OP-1 peptides on basal as well as OP-1 induced cellular alkaline phosphatase activity.
i. Radio-receptor Assay: The receptor-binding activities of various OP-1 synthetic peptides can be determined by an equilibrium displacement binding isotherm assay using ^125I-labeled OP-1 as ligand and OP-1 receptor-enriched plasma membrane fraction of ROS cells. Highly purified OP-1 can be radioiodinated to a specific activity of 70-78 μCi/ug by a modified procedure of lactoperoxidase method. The percent bindability of radioiodinated OP-1 to excess receptor is 30-37%. Plasma membranes enriched with OP-1 receptors from ROS cells can be isolated as is known in the art. […] In a typical assay, fixed amounts of ^125I-labeled sol. OP-1 (˜80,000 cpm) are incubated with fixed amount of receptor-enriched plasma membrane fraction in the presence (5 μg, for non-specific binding) or absence of excess unlabeled OP-1 (for total binding). Displacement curves are generated with increasing concentrations of OP-1 peptide (0.032-50 μM) or OP-1 standard preparation (5-2000 ng). The assay incubations are carried out in a reaction volume of 300 μl with shaking for 22 hrs. at 4° C. Separation of bound and free ^125I-labeled OP-1 is by centrifugation (39,500×g, 30 minutes). The supernatants are aspirated and pellets are washed before counting in a gamma counter (Packard Instr., Downers Grove, Ill.). The concentration of OP-1 peptide required to give 50% inhibition of total specific binding of ^125I-labeled OP-1 (ED50) is calculated from competitive data.

ECD of DAF-4 = target: T1, ECD of DAF-4; experiment: Type II receptor-based rapid solid phase assay; type: binding; settings: for inhibition of 125I-labeled OP-1 binding to the ECD of DAF-4: excess unlabeled competitor, FIG. 20
Experimental: iii. Type H Receptor-based rapid solid phase assay: OP-1 binding activity, and that of various synthetic peptides, may be determined by a rapid solid-phase assay using 125I-labeled OP-1 as ligand and highly purified ECD of DAF-4 as type II receptor. In a typical assay, ˜1 μg of ECD of DAF-4 receptor (R) is dissolved in 20 μl of 50 mM PBSA, pH 7.4 and immobilized on PVDF membranes (Immobilon-P) by using a slot-blot apparatus (VacuSlot-VS). A similarly immobilized polyclonal anti-OP-1 antibody (diluted Ab) has served as positive control, while bovine serum albumin (globulin free) and unrelated receptor ECD have served as negative controls in this assay. The receptor-containing membranes are incubated in 50 mM HEPES buffer, pH 7.4 containing 3% bovine serum albumin (BSA) for 14 h, in cold (4° C.), to block excess protein binding sites on the membrane. The blocking buffer is then replaced with 50 mM HEPES, pH 7.4 containing 0.5% BSA, 10 mM MgCl2 and 1 mM CaCl2, and the receptor-containing membranes are further incubated with ^125I-labeled OP-1 (˜400,000 cpm/ml) in the presence or absence of excess unlabeled OP-1 or test peptide for 18 h, with slow shaking at room temperature. Finally, the membranes are washed four times with 50 mM HEPES buffer, pH 7.4 containing 5 mM MgCl2 and 1 mM CaCl2, air dried and ^125I kept for autoradiography overnight.
Initial binding experiments were carried out to examine the role of the finger 2 region (Leu109-Arg129) of OP-1 in the interaction of OP-1 with the type II receptor. Incubation of DAF4 with radioiodinated OP-1 was done in the presence (a) and absence (b) of synthetic peptide (F2-3) corresponding to the indicated finger 2 region of OP-1. In parallel, immobilized receptor was incubated with radioiodinated OP-1 in the presence of unlabeled OP-1 which served as a positive control. […] These initial results thus identify that the finger 2 region (Leu109-Arg129) of OP-1 is likely a contact region in the interaction of OP-1 with the type II receptor.

binding to ECD of DAF-4 (ECD of DAF-4; FIG. 20 legend) | inhibition of 125I-labeled OP-1 binding to the ECD of DAF-4 (ECD of DAF-4) | Molecule | ability to displace 125I-labeled soluble OP-1 from ROS cell membranes ([1]; Example 2, FIGS. 10A and 10B) | effect on binding of 125I-labeled OP-1 to the receptor ([1]; Example 3) | affinity (Ka) of OP-1 binding sites ([1]; single class of binding sites in ROS cell plasma membrane preparations)
binds to ECD of DAF-4 | 75% | F2-3: SEQ ID No. 19; 16 residues, finger 2 tip 11-residue loop with 5-residue C-terminal extension (CYFDDSSNVICKKYRS; listed as Homo sapiens) | able to completely displace | effectively competed | –
– | 78% | OP-1: osteogenic protein-1, a tissue morphogenic protein of the TGF-β superfamily; mature human OP-1 is SEQ ID No. 4 (protein, listed as Homo sapiens) CKKHELYVSFRDLGWQDWIIAPEGYAAYYCEGECAFPLNSYMNATNHAIVQTLVHFINPETVPKPCCAPTQLNAISVLYFDDSSNVILKKYRNMVVRACGCH | – | – | 4.38e+09 M⁻¹
